We go through 28 variants from the supplement of paper PMC11811203.

Sequences and labels used below:
B1: THAP1; numbered along this chain (parent)
chain: MVQSCSAYGCKNRYDKDKPVSFHKFPLTRPSLCKEWEAAVRRKNFKPTKYSSICSEHFTPDCFKRECNNKLLKENAVPTIFLCTEPHDKKEDLLEPQEQLPPPPLPPPVSQVDAAIGLLMPPLQTPVNLSVFCDHNYTVEDTMHQRKRIHQLEQQVEKLRKKLKTAQQRCRRQERQLEKLKEVVHFQKEKDDVSERGYVILPNDYFEIVEVPA

In this series the parent is B1. In words: THAP1 transcriptional activity (GFP+/GFP- enrichment relative to wild-type constructs) (ratio to WT); higher = more THAP1 activity (PSMB5 reporter activation). The note with it: with PSMB5 promoter-GFP reporter. Summed up: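 Variants were counted by Illumina sequencing of genomic DNA amplicons from BFP+ cells sorted into GFP-bright and GFP-dim bins five days after lentiviral transduction, in duplicate at MOI ~0.3. The library changed each of residues 2–213 of human THAP1 to all 20 amino acids and was introduced into THAP1-knockout HEK-293T cells with mClover3 knocked in at endogenous PSMB5. Activity equals the replicate-mean bright/dim read fold change over the mean of wild-type synonymous constructs.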
Consider MVQSCSAYGCKNRYDKDKPVSFHKFPLTRPSLCKEWEAAVRRKNFKPTKYSSICSEHFTPDCFKRECNNKQLKENAVPTIFLCTEPHDKKEDLLEPQEQLPPPPLPPPVSQVDAAIGLLMPPLQTPVNLSVFCDHNYTVEDTMHQRKRIHQLEQQVEKLRKKLKTAQQRCRRQERQLEKLKEVVHFQKEKDDVSERGYVILPNDYFEIVEVPA [L71Q], for which the THAP1 transcriptional activity turned out to be 0.432. Consider MVQSCSAYGCKNNYDKDKPVSFHKFPLTRPSLCKEWEAAVRRKNFKPTKYSSICSEHFTPDCFKRECNNKLLKENAVPTIFLCTEPHDKKEDLLEPQEQLPPPPLPPPVSQVDAAIGLLMPPLQTPVNLSVFCDHNYTVEDTMHQRKRIHQLEQQVEKLRKKLKTAQQRCRRQERQLEKLKEVVHFQKEKDDVSERGYVILPNDYFEIVEVPA [R13N], for which the THAP1 transcriptional activity worked out at 0.126. With MVQSCSAYGCKNRYDKDKPVSFHKFPLTRPSLCKEWEAAVRRKNFKPTKYSSICSEHFTPDCFKRECNNKLLKENAVPTIFLCTEPHDKKEDLLEPQEILPPPPLPPPVSQVDAAIGLLMPPLQTPVNLSVFCDHNYTVEDTMHQRKRIHQLEQQVEKLRKKLKTAQQRCRRQERQLEKLKEVVHFQKEKDDVSERGYVILPNDYFEIVEVPA [Q99I], the THAP1 transcriptional activity stood at 1.32. For MVQSCSAYGCKNRYDKDKPVSFHKFPLTRPSLCKEWEAAVRRKNFKPTKYSSICSEHFTPDCFKRECNNKLLKENAVPTIFLCTEPHDKKEDLLEPQEQLPPPPLPPPVSQVDAAIGLLMPPLQTPVNLSVFCDHNYTVEDTMHQRKRIHQLEQQVEKLRKKLKTAQQRCRRQSRQLEKLKEVVHFQKEKDDVSERGYVILPNDYFEIVEVPA [E174S], the THAP1 transcriptional activity came to 0.847.

For the variant MVQSCSAYGCKNRYDKDKPVSFHKFPLTRPSLCKEWEAAVRRKNFKPTKYSSICSEHFTPDCFKRECNNKLLKENAVPTIFLCTEPHDKKEDLLEPQEQLPPPPLPPPVSFVDAAIGLLMPPLQTPVNLSVFCDHNYTVEDTMHQRKRIHQLEQQVEKLRKKLKTAQQRCRRQERQLEKLKEVVHFQKEKDDVSERGYVILPNDYFEIVEVPA [Q111F], the THAP1 transcriptional activity worked out at 0.585. With MVQSCSAYGCKNRYDKDKPVSFHKFPLTRPSLCKEWEAAVRRKNFKPTKYSSICSEHFTPDCFKRECNNKLLKENAVPTIFLCTEPHDKKEDLLEPQEQLPPPPLPPPVSQVDAAIGLLMPPLQTPVNLSVFCDHNYTVEDTMHQRKRIHQLEQQVEKLRKKIKTAQQRCRRQERQLEKLKEVVHFQKEKDDVSERGYVILPNDYFEIVEVPA [L163I], the THAP1 transcriptional activity worked out at 0.488. MVQSCSAYGCKNRYDKDKPVSFHKFPLTRPSLCKEWEAAVRRKNFKPTKYSSIMSEHFTPDCFKRECNNKLLKENAVPTIFLCTEPHDKKEDLLEPQEQLPPPPLPPPVSQVDAAIGLLMPPLQTPVNLSVFCDHNYTVEDTMHQRKRIHQLEQQVEKLRKKLKTAQQRCRRQERQLEKLKEVVHFQKEKDDVSERGYVILPNDYFEIVEVPA [C54M]: the THAP1 transcriptional activity came to 0.0985. On to MVQSCSAYGCKNRYDKDKPVSFHKFPLTRPSLCKEWEAAVRRKNFKPTKYSSICSEHFTPDCFKRECNNKLLKENAVPTIFLCTEPHDKKEDLLEPQEQLPPPPLPEPVSQVDAAIGLLMPPLQTPVNLSVFCDHNYTVEDTMHQRKRIHQLEQQVEKLRKKLKTAQQRCRRQERQLEKLKEVVHFQKEKDDVSERGYVILPNDYFEIVEVPA [P107E], for which the THAP1 transcriptional activity turned out to be 1.58. On to MVQSCSAYGCKNRYDKDKPVSFHKFPLTRPSLCKEWEAAVRRKNFKPTKYSSICSEHFTPDCFKRECNNKLLKENAVPTIFLCTEPHDKKEDLLEPQEQYPPPPLPPPVSQVDAAIGLLMPPLQTPVNLSVFCDHNYTVEDTMHQRKRIHQLEQQVEKLRKKLKTAQQRCRRQERQLEKLKEVVHFQKEKDDVSERGYVILPNDYFEIVEVPA [L100Y], for which the THAP1 transcriptional activity came out at 0.692.

As to MVQSCSAYGCKNRYDKDKPVSFHKFPLTRPSLCKEWEAAVRRKNFKPTKYSSICSEHFTPDCFKRECNNKLLKENAVPTIFLCTEPHDKKEDLLEPQEQLPPPPLPPPVSQVDAAIGLLMPPFQTPVNLSVFCDHNYTVEDTMHQRKRIHQLEQQVEKLRKKLKTAQQRCRRQERQLEKLKEVVHFQKEKDDVSERGYVILPNDYFEIVEVPA [L123F], the THAP1 transcriptional activity stood at 0.608.

For the variant MVQSCSAYGCKNRYDKDKPVSFHKFPLTRPSLCKEWEAAVRRKNFKPTKYSSICSEHFTPDCFKRECNNKLLKENAVPTIFLCTEPHDKKEDLLEPQVQLPPPPLPPPVSQVDAAIGLLMPPLQTPVNLSVFCDHNYTVEDTMHQRKRIHQLEQQVEKLRKKLKTAQQRCRRQERQLEKLKEVVHFQKEKDDVSERGYVILPNDYFEIVEVPA [E98V], the THAP1 transcriptional activity stood at 1.56. As to MVQSCSAYGCKNRYDKDKPVSFHKFPLTRPSLCKEWEAAVRTKNFKPTKYSSICSEHFTPDCFKRECNNKLLKENAVPTIFLCTEPHDKKEDLLEPQEQLPPPPLPPPVSQVDAAIGLLMPPLQTPVNLSVFCDHNYTVEDTMHQRKRIHQLEQQVEKLRKKLKTAQQRCRRQERQLEKLKEVVHFQKEKDDVSERGYVILPNDYFEIVEVPA [R42T], the THAP1 transcriptional activity worked out at 0.103. As for MVQSCSAYGCKNRYDKDKPVSFHKFPLTRPSLCKEWEAAVRGKNFKPTKYSSICSEHFTPDCFKRECNNKLLKENAVPTIFLCTEPHDKKEDLLEPQEQLPPPPLPPPVSQVDAAIGLLMPPLQTPVNLSVFCDHNYTVEDTMHQRKRIHQLEQQVEKLRKKLKTAQQRCRRQERQLEKLKEVVHFQKEKDDVSERGYVILPNDYFEIVEVPA [R42G], the THAP1 transcriptional activity turned out to be 0.0813. The result for MVQFCSAYGCKNRYDKDKPVSFHKFPLTRPSLCKEWEAAVRRKNFKPTKYSSICSEHFTPDCFKRECNNKLLKENAVPTIFLCTEPHDKKEDLLEPQEQLPPPPLPPPVSQVDAAIGLLMPPLQTPVNLSVFCDHNYTVEDTMHQRKRIHQLEQQVEKLRKKLKTAQQRCRRQERQLEKLKEVVHFQKEKDDVSERGYVILPNDYFEIVEVPA [S4F] reads 0.177; that for MVQSCSAYGCKNRYDKDKPVSFHKFPLTRPSLCKEWEAAVRRKNFKPTKYSSICSEHFTPDCFKRTCNNKLLKENAVPTIFLCTEPHDKKEDLLEPQEQLPPPPLPPPVSQVDAAIGLLMPPLQTPVNLSVFCDHNYTVEDTMHQRKRIHQLEQQVEKLRKKLKTAQQRCRRQERQLEKLKEVVHFQKEKDDVSERGYVILPNDYFEIVEVPA [E66T], 1.3. The result for MVQSCSAYGCKNRYDKDKPVSFHKFPLTRPSLCKEWEAAVRRKNFKPTKYSSICSEHFTPDCFKRECNNKLLKENAVPTIFLCTEPHDKKEDLLEPQEQLPPPPLPPPVSQVDAAIYLLMPPLQTPVNLSVFCDHNYTVEDTMHQRKRIHQLEQQVEKLRKKLKTAQQRCRRQERQLEKLKEVVHFQKEKDDVSERGYVILPNDYFEIVEVPA [G117Y] reads 0.262; that for MVQSCSAYGCKNRYDKDKPVSFHKFPLTRPSLCKEWEAAVRRKNFKPTKYSSICSEHFTPDCFKRECNNKLLKENAVPTIFLCTEPHDKKEDLLEPQEQLPPPPLPPPVSQVDAAIGLLMPPLQTPVNLSVFCDHNYTVEDTMHQRKRIHQLEQQVEKLRKKLKTAQQRCRRQERQLEKLKEVVHFQKEKDDHSERGYVILPNDYFEIVEVPA [V193H], 0.804. With MVQSCSAYGCKNRYDKDKPVSFHKFPLTRPSLCKEWEAAVRRKNFKPTKYSSICSEHFTPDCFKRECNNKLLKENAVPTIFLCTEPHDKKEDLLEPFEQLPPPPLPPPVSQVDAAIGLLMPPLQTPVNLSVFCDHNYTVEDTMHQRKRIHQLEQQVEKLRKKLKTAQQRCRRQERQLEKLKEVVHFQKEKDDVSERGYVILPNDYFEIVEVPA [Q97F], the THAP1 transcriptional activity amounted to 1.2.

MVQSCSAYGCKNRYDKDKPVSFHKFPLTRPSLCKEWEAAVRRKNFKPTKYSSICSEHFTPDCFKRECNNKLLKENAVPTIFLCTEPHDKKEDLLEPQEQLPPPPLPPPVSQVDAAIGLLMLPLQTPVNLSVFCDHNYTVEDTMHQRKRIHQLEQQVEKLRKKLKTAQQRCRRQERQLEKLKEVVHFQKEKDDVSERGYVILPNDYFEIVEVPA [P121L]: the THAP1 transcriptional activity turned out to be 0.104. Consider MVQSCSAYGCKNRYDKDKPVSFHKFPLTRPSLCKEWEAAVRRKNFKPTKYSSICSEHFTPDCFKRECNNKLLSENAVPTIFLCTEPHDKKEDLLEPQEQLPPPPLPPPVSQVDAAIGLLMPPLQTPVNLSVFCDHNYTVEDTMHQRKRIHQLEQQVEKLRKKLKTAQQRCRRQERQLEKLKEVVHFQKEKDDVSERGYVILPNDYFEIVEVPA [K73S], for which the THAP1 transcriptional activity amounted to 0.154. On to MVQSCSAYGCKNRYDKDKPVSFHKFPLTRPSLCKEWEAAVRRKNFKPTKYSSICSEHFTPDCFKRECNNKLLKENAVPTIFLCTEPHDKKEDLLEPQEQLPPPPLPPPVSQVDAAIGLLMPPLQTPVNLEVFCDHNYTVEDTMHQRKRIHQLEQQVEKLRKKLKTAQQRCRRQERQLEKLKEVVHFQKEKDDVSERGYVILPNDYFEIVEVPA [S130E], for which the THAP1 transcriptional activity was found to be 0.224. With MVQSCSAYGCKNRYDKDKPVSFHKFPLTRPSLCKEWEAAVRRKNFKPTKYSSICSEHFTPDCFKRECNNKLLKENAVPTIFLCTEPHDKKEDLLEPQEQLPPPPLPPPVSQVDAAIGLLMPPLQTPVNLSVFCDHNYTVEDTMHQRKRIHQLEQQVEKLRKKLKTAQHRCRRQERQLEKLKEVVHFQKEKDDVSERGYVILPNDYFEIVEVPA [Q168H], the THAP1 transcriptional activity was found to be 0.394. For the variant MVQSCSAYGCKNRYDKDKPVSFHKFPLTRPSLCKEWEAAVRRKNFKPTKYSSICSEHFTPDCFKRECNNKLLKENAVPTIFLCTEPHDKKEDLLEPQEQLPPPPLPPPVSQVDAAIGLLMPPLQTPVNLSVFCDHNYTVEDTMHQRKRIHQLEQQVEKLRKKLKTAQVRCRRQERQLEKLKEVVHFQKEKDDVSERGYVILPNDYFEIVEVPA [Q168V], the THAP1 transcriptional activity came out at 0.249. On to MVQSCSAYGCKNRYDKDKPVSFHKFPLTRPSLCKEWEAAVRRKNFKPTKYSSICSEHFTPDCFKRECNNKLLKENAVPTIFLCTEPHDKKEDLLEPQEQLPPPPLPPPVSQVDAAIGLLMPPLQTPVNLSVFCDHNYTVEDTMHQRKRIHQLEQQVEKLRKKLKTAQQRCRRQERQLEKLKEVVHFQNEKDDVSERGYVILPNDYFEIVEVPA [K188N], for which the THAP1 transcriptional activity stood at 1.03. With MVQSCSAYGCKNRYDKDKPVSFHKFPLTRPSLCKEWEAAVRRKNFKPTKYSSICSEHFTPDCFKRECNNKLLKENAVPTIFLCTEPHDKKEDLLEPQEQLPPPPLPPPVSQVDAAIGLLMPPLQTPVNLSVFCDHNVTVEDTMHQRKRIHQLEQQVEKLRKKLKTAQQRCRRQERQLEKLKEVVHFQKEKDDVSERGYVILPNDYFEIVEVPA [Y137V], the THAP1 transcriptional activity came out at 0.0934. For MVQSCSAYGCKNRYDKDKPVSFHKFPLTRPSLCKEWEAAVRRKNFKPTKYSSICSEHFTPDCFKRECNNKLLKENAVPTIFLCTEPHDKKEDLLEPQEQLPPPPLPPPVSQVDAAIGLLMPPLQTPVNLSVFCDHNYTVEDTMHQRKRIHQLEQQVEKLRKKLKTNQQRCRRQERQLEKLKEVVHFQKEKDDVSERGYVILPNDYFEIVEVPA [A166N], the THAP1 transcriptional activity worked out at 0.382. For MVQSCSAYGCKNRYDKDKPVSFHKFPLTRPSLCKEWEAAVRRKNFKPTKYSSICSEHFTPDCFKRECNNKLLKENAVPTIFLCTEPHDKKEDLLEPQEQLPPPPLPPPVSQVDAAIGLLMPPLQTPVNLSVFCDHNYTVEDTMHQRKRIHQLEQQVEKLRKKLKTAQQRCRRQERQLEKLKEVVHFQKEKDDVSRRGYVILPNDYFEIVEVPA [E195R], the THAP1 transcriptional activity amounted to 1.03.

On to MVQSCSAYGCKNRYDKDKPVSFHKFPLTRPSLCKEWEAAVRRKNFKPTKYSSICSEHFTPDCFKRECNNKLLKENAVPTIFLCTEPHDKKEDLLEPQEQLPPPPLPPPVSQVDAAIGLLMPPLQTPVNLSVFCDHNYTVEDTMHQRKRIHQLEQQVEKLRKKLKTAQQRCRRQERQLTKLKEVVHFQKEKDDVSERGYVILPNDYFEIVEVPA [E178T], for which the THAP1 transcriptional activity was found to be 1.26.
